In US20230151068A1:

Molecular target: biotinylated His-Avi-TEAD (194-411) (UniProt P28347)
Assay: SSM screen, enrichment after two rounds of sorting

Row | Binder | enrichment score
1 | GSPDEYIERAKECCKKMDIQCCLRYFEESGDPNVMLICLFCP (designed binder) [G15M variant of SEQ ID NO: 1] | 1.64
2 | GSPDEYIERAKECCKKGDTQCCLRYFEESGDPNVMLICLFCP (designed binder) [I17T variant of SEQ ID NO: 1] | 2.21
3 | GSPDEYIERAKECCKKQDIQCCLRYFEESGDPNVMLICLFCP (designed binder) [G15Q variant of SEQ ID NO: 1] | 2.5
4 | GSPDEYIERAKECCKKGLIQCCLRYFEESGDPNVMLICLFCP (designed binder) [D16L variant of SEQ ID NO: 1] | -8.99
5 | GSPDEYIERAKECCKNGDIQCCLRYFEESGDPNVMLICLFCP (designed binder) [K14N variant of SEQ ID NO: 1] | 1.51
6 | GSPDEYIERAKECCKKGDFQCCLRYFEESGDPNVMLICLFCP (designed binder) [I17F variant of SEQ ID NO: 1] | -3.5
7 | GSPDEYIERAKECCKKGDINCCLRYFEESGDPNVMLICLFCP (designed binder) [Q18N variant of SEQ ID NO: 1] | -0.16
8 | GSPDEYIERAKECCKKFDIQCCLRYFEESGDPNVMLICLFCP (designed binder) [G15F variant of SEQ ID NO: 1] | -1.98
9 | GSPDEYIERAKECCKKVDIQCCLRYFEESGDPNVMLICLFCP (designed binder) [G15V variant of SEQ ID NO: 1] | 0.99
10 | GSPDEYIERAKECCKKGIIQCCLRYFEESGDPNVMLICLFCP (designed binder) [D16I variant of SEQ ID NO: 1] | -6.42
11 | GSPDEYIERAKECCIKGDIQCCLRYFEESGDPNVMLICLFCP (designed binder) [K13I variant of SEQ ID NO: 1] | -1.54
12 | GSPDEYIERAKECCKKGSIQCCLRYFEESGDPNVMLICLFCP (designed binder) [D16S variant of SEQ ID NO: 1] | -2.71
13 | GSPDEYIERAKECCKKGDISCCLRYFEESGDPNVMLICLFCP (designed binder) [Q18S variant of SEQ ID NO: 1] | -1.25
14 | GSPDEYIERAKECCKKGDILCCLRYFEESGDPNVMLICLFCP (designed binder) [Q18L variant of SEQ ID NO: 1] | -4.91
15 | GSPDEYIERAKECCKKGDWQCCLRYFEESGDPNVMLICLFCP (designed binder) [I17W variant of SEQ ID NO: 1] | -10.4
16 | GSPDEYIERAKECCVKGDIQCCLRYFEESGDPNVMLICLFCP (designed binder) [K13V variant of SEQ ID NO: 1] | -1.65
17 | GSPDEYIERAKECCKKGDSQCCLRYFEESGDPNVMLICLFCP (designed binder) [I17S variant of SEQ ID NO: 1] | -2.1
18 | GSPDEYIERAKECCKIGDIQCCLRYFEESGDPNVMLICLFCP (designed binder) [K14I variant of SEQ ID NO: 1] | -0.99
19 | GSPDEYIERAKECCNKGDIQCCLRYFEESGDPNVMLICLFCP (designed binder) [K13N variant of SEQ ID NO: 1] | 0.6
20 | GSPDEYIERAKECCKKGVIQCCLRYFEESGDPNVMLICLFCP (designed binder) [D16V variant of SEQ ID NO: 1] | -7.81
21 | GSPDEYIERAKECCKKTDIQCCLRYFEESGDPNVMLICLFCP (designed binder) [G15T variant of SEQ ID NO: 1] | 2.65
22 | GSPDEYIERAKECCKKGDAQCCLRYFEESGDPNVMLICLFCP (designed binder) [I17A variant of SEQ ID NO: 1] | -4.36
23 | GSPDEYIERAKECCKKGDIWCCLRYFEESGDPNVMLICLFCP (designed binder) [Q18W variant of SEQ ID NO: 1] | -11.1
24 | GSPDEYIERAKECCKKGNIQCCLRYFEESGDPNVMLICLFCP (designed binder) [D16N variant of SEQ ID NO: 1] | -2.7
25 | GSPDEYIERAKECCTKGDIQCCLRYFEESGDPNVMLICLFCP (designed binder) [K13T variant of SEQ ID NO: 1] | 1.49
26 | GSPDEYIERAKECCAKGDIQCCLRYFEESGDPNVMLICLFCP (designed binder) [K13A variant of SEQ ID NO: 1] | 1.94
27 | GSPDEYIERAKECCLKGDIQCCLRYFEESGDPNVMLICLFCP (designed binder) [K13L variant of SEQ ID NO: 1] | -1.37

The remaining lines, values ahead:

Row | enrichment score | Binder
28 | 1.28 | GSPDEYIERAKECCKKGDLQCCLRYFEESGDPNVMLICLFCP (designed binder) [I17L variant of SEQ ID NO: 1]
29 | -4.12 | GSPDEYIERAKECCKKGMIQCCLRYFEESGDPNVMLICLFCP (designed binder) [D16M variant of SEQ ID NO: 1]
30 | 0.08 | GSPDEYIERAKECCKVGDIQCCLRYFEESGDPNVMLICLFCP (designed binder) [K14V variant of SEQ ID NO: 1]
31 | 2.37 | GSPDEYIERAKECCKKSDIQCCLRYFEESGDPNVMLICLFCP (designed binder) [G15S variant of SEQ ID NO: 1]
32 | -4.75 | GSPDEYIERAKECCKKWDIQCCLRYFEESGDPNVMLICLFCP (designed binder) [G15W variant of SEQ ID NO: 1]
33 | -9.52 | GSPDEYIERAKECCKKGDIMCCLRYFEESGDPNVMLICLFCP (designed binder) [Q18M variant of SEQ ID NO: 1]
34 | -0.22 | GSPDEYIERAKECCKAGDIQCCLRYFEESGDPNVMLICLFCP (designed binder) [K14A variant of SEQ ID NO: 1]
35 | -2.64 | GSPDEYIERAKECCKWGDIQCCLRYFEESGDPNVMLICLFCP (designed binder) [K14W variant of SEQ ID NO: 1]
36 | -4.21 | GSPDEYIERAKECCKKGDIFCCLRYFEESGDPNVMLICLFCP (designed binder) [Q18F variant of SEQ ID NO: 1]
37 | -0.59 | GSPDEYIERAKECCKKLDIQCCLRYFEESGDPNVMLICLFCP (designed binder) [G15L variant of SEQ ID NO: 1]
38 | 1.89 | GSPDEYIERAKECCKKADIQCCLRYFEESGDPNVMLICLFCP (designed binder) [G15A variant of SEQ ID NO: 1]
39 | -1.86 | GSPDEYIERAKECCKKGFIQCCLRYFEESGDPNVMLICLFCP (designed binder) [D16F variant of SEQ ID NO: 1]
40 | -0.5 | GSPDEYIERAKECCKFGDIQCCLRYFEESGDPNVMLICLFCP (designed binder) [K14F variant of SEQ ID NO: 1]
41 | -1.53 | GSPDEYIERAKECCKKGDIACCLRYFEESGDPNVMLICLFCP (designed binder) [Q18A variant of SEQ ID NO: 1]
42 | 0.47 | GSPDEYIERAKECCKKGDNQCCLRYFEESGDPNVMLICLFCP (designed binder) [I17N variant of SEQ ID NO: 1]
43 | -5.23 | GSPDEYIERAKECCKKGAIQCCLRYFEESGDPNVMLICLFCP (designed binder) [D16A variant of SEQ ID NO: 1]
44 | -1.96 | GSPDEYIERAKECCKKIDIQCCLRYFEESGDPNVMLICLFCP (designed binder) [G15I variant of SEQ ID NO: 1]
45 | 1.61 | GSPDEYIERAKECCKSGDIQCCLRYFEESGDPNVMLICLFCP (designed binder) [K14S variant of SEQ ID NO: 1]

Row | enrichment score | Binder
46 | 3.06 | GSPDEYIERAKECCKKNDIQCCLRYFEESGDPNVMLICLFCP (designed binder) [G15N variant of SEQ ID NO: 1]
47 | -2.3 | GSPDEYIERAKECCKKGWIQCCLRYFEESGDPNVMLICLFCP (designed binder) [D16W variant of SEQ ID NO: 1]
48 | -0.77 | GSPDEYIERAKECCKKGDIVCCLRYFEESGDPNVMLICLFCP (designed binder) [Q18V variant of SEQ ID NO: 1]
49 | 1.43 | GSPDEYIERAKECCSKGDIQCCLRYFEESGDPNVMLICLFCP (designed binder) [K13S variant of SEQ ID NO: 1]
50 | -3.47 | GSPDEYIERAKECCKKGQIQCCLRYFEESGDPNVMLICLFCP (designed binder) [D16Q variant of SEQ ID NO: 1]
51 | -0.89 | GSPDEYIERAKECCKLGDIQCCLRYFEESGDPNVMLICLFCP (designed binder) [K14L variant of SEQ ID NO: 1]
52 | 2.23 | GSPDEYIERAKECCQKGDIQCCLRYFEESGDPNVMLICLFCP (designed binder) [K13Q variant of SEQ ID NO: 1]
53 | -2.28 | GSPDEYIERAKECCKKGDITCCLRYFEESGDPNVMLICLFCP (designed binder) [Q18T variant of SEQ ID NO: 1]
54 | -3.1 | GSPDEYIERAKECCKKGDQQCCLRYFEESGDPNVMLICLFCP (designed binder) [I17Q variant of SEQ ID NO: 1]
55 | 3.18 | GSPDEYIERAKECCKTGDIQCCLRYFEESGDPNVMLICLFCP (designed binder) [K14T variant of SEQ ID NO: 1]
56 | -1.14 | GSPDEYIERAKECCFKGDIQCCLRYFEESGDPNVMLICLFCP (designed binder) [K13F variant of SEQ ID NO: 1]
57 | -11.4 | GSPDEYIERAKECCKKGDIICCLRYFEESGDPNVMLICLFCP (designed binder) [Q18I variant of SEQ ID NO: 1]
58 | 4.17 | GSPDEYIERAKECCKKGDVQCCLRYFEESGDPNVMLICLFCP (designed binder) [I17V variant of SEQ ID NO: 1]
59 | -2.95 | GSPDEYIERAKECCKKGDMQCCLRYFEESGDPNVMLICLFCP (designed binder) [I17M variant of SEQ ID NO: 1]
60 | -10 | GSPDEYIERAKECCKKGTIQCCLRYFEESGDPNVMLICLFCP (designed binder) [D16T variant of SEQ ID NO: 1]
61 | 0.17 | GSPDEYIERAKECCKQGDIQCCLRYFEESGDPNVMLICLFCP (designed binder) [K14Q variant of SEQ ID NO: 1]
62 | -2.99 | GSPDEYIERAKECCWKGDIQCCLRYFEESGDPNVMLICLFCP (designed binder) [K13W variant of SEQ ID NO: 1]
